What was measured:
[1] = pNA assay: protease activity with 1 mM Cu2+ relative to control without Cu2+; type: biochemical; settings: enzyme 1 mg/l, Suc-AAPF-pNA, pH 7, 25° C.; for Enzyme Activity, +1 mM Cu^2+: 1 mM Cu2+; for Enzyme Activity, Control (no Cu^2+): no Cu2+; for Relative Activity: activity with 1 mM Cu2+ relative to control without Cu2+
Protocol: (§1) Protease activity is measured using the substrate Suc-AAPF-pNA, in assay buffer at pH 7.0 and 25° C. For more details, please refer to the pNA assay described in Example 4, which also describes in detail the determination according to i) and ii).
Feature ii) is determined as the enzyme activity in the presence of 1 mM Cu^2+, relative to the activity of the same enzyme under the same conditions, except for the presence of Cu^2+. For the protease of the invention, this relative activity is at least 0.66 (=66%). For the purposes of feature ii), enzyme (protease) activity is measured as described above.
pNA substrate: Suc-AAPF-pNA (Bachem L-1400) or Boc-VLGR-pNA (Bachem L-1205). Temperature: 25° C.
(§2) 20 ul (microliters) protease (diluted in 0.01% Triton X-100) was placed in a well of a micro titer plate. The assay was started by adding 200 ul pNA substrate (50 mg dissolved in 1.0 ml DMSO and further diluted 100× with assay buffer). The increase in OD405 was monitored as a measure of the protease activity.
First, the effect of various Cu^2+ concentrations was tested with an enzyme dosage of 1 mg/l. At least in the range of 0 to 1 mM Cu^2+ there seemed to be a linear relationship between inhibition and concentration of Cu^2+, the inhibition manifesting itself as a decrease in the enzyme activity with increasing concentrations of Cu^2+ (the enzyme activity being measured as average OD405 increase/time from the linear part of dose/response curves).

[2] = Stability assay: residual activity after incubation with 1 mM inhibitor, measured by pNA assay; type: physicochemical; parameters: key to Residual Enzyme Activity: fraction of activity at 0 h incubation (0.80 = 80%); settings: for Stability in the presence of 1 mM Cu2+ / Residual Enzyme Activity: 25° C.; for Residual Enzyme Activity: 1 mM Cu2+, pH 7, 0.1% K-sorbate, relative to 0 hours; for Feature i): residual activity at least 0.80 after 164 hours with 1 mM Cu2+: pH 7, 25° C., 0.1% K-Sorbate
Protocol: Feature i) is determined as residual (=rest, or remaining) enzyme activity after having incubated the enzyme for 164 hours, at pH 7 and 25° C., in assay buffer supplemented with 0.1% K-Sorbate (for preservation purposes), and in the presence of 1 mM Cu^2+. The residual activity is measured relative to the activity after 0 hours of incubation. For the protease of the invention, the residual activity is at least 0.80 (=80%).
as §1, §2
The protease was diluted to approx. 1 mg/ml (see below) in assay buffer with 0.1% (w/v) K-sorbate (potassium salt of sorbic acid) and 1 mM inhibitor. The mixture was incubated at 25° C.). At intervals, a sample was withdrawn from the incubation (after thorough mixing) and frozen. After dilution in assay buffer, residual activity was measured using the pNA assay. For the 1 mM inhibitor additions, the incubation was diluted in assay buffer with 5 mM EDTA in order to see a pure stability effect.
Protease concentrations were estimated from the theoretical molar extinction coefficients, E280 (1 M), which can be calculated from the amino acid composition using the formula: E280 (1 M)=5690*NTrp+1280*NTyr+120*NCys, where NTrp, NTyr, and NCys are the number of Trp, Tyr, and Cys amino acid residues in the protease (Gill, S. C., von Hippel, P. H., Analytical Biochemistry 182: 319-326 (1989)) and the molecular weight, Mw, of the protease calculated from the amino acid sequence. From an A280 measurement of a pure protease sample (more than 95% pure according to Example 2), the protease concentration was calculated as: Conc (mg/ml)=(A280*MW)/E280 (1 M)).
The stability of the various proteases in the presence of the various inhibitors in a concentration of 1 mM was tested as described above. The only inhibitor that had some effect on the stability of some of the proteases was Cu^2+. However, the effect of this inhibitor was not the same on all the proteases: See the results in Table 2 below showing that Protease 18 and the Brachysporiella proteases are indeed stable in the presence of 1 mM Cu^2+, while the other proteases are not.

Row | Molecule | Enzyme Activity, +1 mM Cu^2+ [1] | Enzyme Activity, Control (no Cu^2+) [1] | Stability in the presence of 1 mM Cu2+ [2] | Residual Enzyme Activity ([2]; incubation time 0 hours) | Residual Enzyme Activity ([2]; incubation time 3.1 hours) | Residual Enzyme Activity ([2]; incubation time 18.6 hours) | Residual Enzyme Activity ([2]; incubation time 44.0 hours) | Residual Enzyme Activity ([2]; incubation time 116.0 hours) | Residual Enzyme Activity ([2]; incubation time 164.0 hours) | Residual Enzyme Activity ([2]; incubation time 188.6 hours) | Feature i): residual activity at least 0.80 after 164 hours with 1 mM Cu2+ [2] | Relative Activity [1]
1 | Protease 18: protease from Nocardiopsis dassonvillei subsp. dassonvillei DSM 43235, amino acids 1-188 of SEQ ID NO: 12 (protein, Nocardiopsis dassonvillei subspecies dassonvillei) APAPVPQTPVADDSAASMTEALKRDLDLTSAEAEELLSAQEAAIETDAEATEAAGEAYGGSLFDTETLELTVLVTDASAVEAVEATGAQATVVSHGTEGLTEVVEDLNGAEVPESVLGWYPDVESDTVVVEVLEGSDADVAALLADAGVDSSSVRVEEAEEAPQVYADIIGGLAYYMGGRCSVGFAAT | 158.0 mOD405/min | 193.1 mOD405/min | stable | 1.000 | 0.985 | 1.008 | 1.003 | 0.982 | 1.030 | 0.993 | fulfil feature i) | 
2 | Protease 11: protease from Nocardiopsis prasina DSM 15648, amino acids 1-188 of SEQ ID NO: 6 (protein, listed as Nocardiopsis prasina) ATGPLPQSPTPEADAVSMQEALQRDLGLTPLEADELLAAQDTAFEVDEAAAAAAGDAYGGSVFDTETLELTVLVTDAASVEAVEATGAGTELVSYGIEGLDEIIQDLNAADAVPGVVGWYPDVAGDTVVLEVLEGSGADVSGLLADAGVDASAVEVTSSAQPELYADIIGGLAYTMGGRCSVGFAATN | 92.3 mOD405/min | 133.6 mOD405/min |  | 1.000 | 0.930 | 1.032 | 0.930 | 0.737 | 0.616 | 0.581 |  | 0.691
3 | Brachysporiella protease: protease from Brachysporiella gayana CGMCC 0865, amino acids 1-186 of SEQ ID NO: 14 (protein, listed as Brachysporiella gayana) MELTSLIAALAVILPIAYGVPMDATTNLSPKVLAAMKRDLGLDAREATARVTFERRAGDVIEELRSSLGDSFAGAWVTDGKVINIGVTDQALVSKVKEAGAEPMVMKNSLGKLQEAKKKLDQIIKEKPKTLSTSGKPGIATYYVDIETNKLIITALSTSITQAEDLAKEVGLSESEFEVRKTEKMP | 50.5 mOD405/min | 72.6 mOD405/min | stable | 1.000 | 1.022 | 1.073 | 1.057 | 1.029 | 1.053 | 0.984 | fulfil feature i) | 0.695
4 | Metarhizium protease: known protease derived from Metarhizium anisopliae, amino acids 1-188 of SEQ ID NO: 4 (protein, listed as Metarhizium anisopliae) MELTKFLALLAVILPVAYGAPTQAASLHPQILEAMKRDLGLNAEQATVRVAREIHATDVIEQLRSSVAFAGAWIDADVLYIGITDQALADEVTAAGATPIVMTNSLSKLEKAKEDLDKIFIGRANTLETSSDTSSGIASYFVDVAANKLVIEALADSHGHAEQLAAQVGLTSEFEVRTVETMPTTMAT | 72.4 mOD405/min | 118.2 mOD405/min |  | 1.000 | 0.979 | 0.939 | 0.891 | 0.760 | 0.651 | 0.627 |  | 0.612
5 | Protease 35: protease from Nocardiopsis prasina DSM 15649, amino acids 1-188 of SEQ ID NO: 8 (protein, listed as Nocardiopsis prasina) ATGPLPQSPTPEADAVSMQEALQRDLGLTPLEADELLAAQDTAFEVDEAAAEAAGDAYGGSVFDTETLELTVLVTDSAAVEAVEATGAGTELVSYGITGLDEIVEELNAADAVPGVVGWYPDVAGDTVVLEVLEGSGADVGGLLADAGVDASAVEVTTTEQPELYADIIGGLAYTMGGRCSVGFAATN | 75.0 mOD405/min | 109.2 mOD405/min |  | 1.000 | 0.960 | 0.918 | 0.852 | 0.807 | 0.745 | 0.733 |  | 0.687
6 | Protease 08: protease from Nocardiopsis alba DSM 15647, amino acids 1-188 of SEQ ID NO: 10 (protein, listed as Nocardiopsis alba) ATGPLPQSPTPDEAEATTMVEALQRDLGLSPSQADELLEAQAESFEIDEAATAAAADSYGGSIFDTDSLTLTVLVTDASAVEAVEAAGAEAKVVSHGMEGLEEIVADLNAADAQPGVVGWYPDIHSDTVVLEVLEGSGADVDSLLADAGVDTADVKVESTTEQPELYADIIGGLAYTMGGRCSVGFAA | 174.5 mOD405/min | 216.0 mOD405/min |  | 1.000 | 0.936 | 0.867 | 0.842 | 0.767 | 0.721 | 0.703 |  | 
7 | Protease 10: known protease derived from Nocardiopsis sp. NRRL 18262, amino acids 1-188 of SEQ ID NO: 2 (protein) ADIIGGLAYTMGGRCSVGFAATNAAGQPGFVTAGHCGRVGTQVTIGNGRGVFEQSVFPGNDAAFVRGTSNFTLTNLVSRYNTGGYATVAGHNQAPIGSSVCRSGSTTGWHCGTIQARGQSVSYPEGTVTNMTRTTVCAEPGDSGGSYISGTQAQGVTSGGSGNCRTGGTTFYQEVTPMVNSWGVRLRT | 80.3 mOD405/min | 122.2 mOD405/min |  | 1.000 | 0.952 | 0.868 | 0.874 | 0.837 | 0.752 | 0.723 |  | 0.657
